# Results: the supplement of paper PMC10724198
# ± gives the standard deviation of the averaged measurements.
# Test system: Saccharomyces cerevisiae
# Experiment: protein stability index of tFT-peptide fusion (C-terminal peptide) (PSI (0-1 scale)); higher = more stable (slower turnover)
# Conditions: genetic background: doa10 deletion; temperature: 30 C
# Description: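 MPS profiling in S. cerevisiae of the tFT-X12 degron library: putative degron peptides plus stable controls, 12 aa, fused to the C-terminus of a sfGFP-mCherry timer. Cells are FACS-sorted into 8 mCherry/sfGFP bins and deep-sequenced. PSI runs from 0 (unstable) to 1 (stable). Backgrounds are wild type, das1Δ and doa10Δ at 30 °C, and wild type, das1Δ, cdc34-1 and cdc53-1 at 37 °C; 2-3 technical replicates each.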
# 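Note: PSI is a weighted mean of sequencing reads over stability bins, variants kept only with over 10 reads, mCherry proximal and sfGFP distal, peptide attached via GGGS linker.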
row,Sequence,protein stability index
1,VWSWFVIYFFFC,0.366 ± 0.02
2,VYCTFLFAYTLP,0.435 ± 0.0053
3,VYEVELSVRVTV,0.404 ± 0.0053
4,VYVVLGTVYVTY,0.166 ± 0.0049
5,WDPKISVFVLID,0.246 ± 0.013
6,WFAHGLRHFRIL,0.273 ± 0.016
7,WFFLFGFVFFFR,0.433 ± 0.018
8,WFGCSTVWVRVQ,0.0767 ± 0.0031
9,WFIPRSVCRWLF,0.0895 ± 0.017
10,WFSAGSCRWVLC,0.126 ± 0.0071
11,WGAHRVRVSRIL,0.295 ± 0.003
12,WLCVFVFGIFFV,0.292 ± 0.0061
13,WLFRCFLFVVGG,0.413 ± 0.019
14,WLLVVCRGLVFR,0.329 ± 0.023
15,WQGWFLSLCIWV,0.317 ± 0.0065
16,WQVPYQRLAILF,0.215 ± 0.017
17,WRCLHLVYLFFH,0.192 ± 0.0042

row,Sequence,protein stability index
1,WRVRFRLLAGFC,0.073 ± 0.016
2,WSFPFFLLPFLF,0.25 ± 0.0094
3,WSFYVVGRLLVN,0.106 ± 0.0031
4,WSHVPLAPLSCF,0.287 ± 0.0032
5,WSVCLLLLGRFC,0.347 ± 0.0005
6,WTRAHWFFQFFV,0.0772 ± 0.00094
7,WVVVLFAYRGLR,0.323 ± 0.02
8,WYMYVRMASFLV,0.302 ± 0.0084
9,YCDPSLIWLYLM,0.1768 ± 0.0011
10,YFICLSLVLFSY,0.202 ± 0.02
11,YIILLSRKCAFC,0.401 ± 0.011
12,YKLRAVFVCSVT,0.311 ± 0.018
13,YLYSSSPWILHG,0.274 ± 0.027
14,YTVRRVWLVRSR,0.312 ± 0.012
15,YVGILCTGILTV,0.38 ± 0.011
16,YVSSCLLWLCFV,0.28 ± 0.0085
17,YYVIFHLFSFLI,0.288 ± 0.0055

# Same assay, conditions: genetic background: wild type; temperature: 30 C
row,Sequence,protein stability index
1,VSLIFCLFFLSC,0.404 ± 0.027
2,VSTVCLDFSPFL,0.66 ± 0.007
3,VTSVARVVLHLL,0.115 ± 0.021
4,VVCPCIIYVPGV,0.461 ± 0.0066
5,VVFLLGPLVCGG,0.397 ± 0.019
6,VVFVGRSIVVLT,0.371 ± 0.03
7,VVFWFPFVLRCC,0.0509 ± 0.0053
8,VVFWWGHLLVSA,0.0919 ± 0.021
9,VVLVVVWWGGVE,0.258 ± 0.029
10,VVMASSIIVVAG,0.142 ± 0.058
11,VVVLFGRLVVIC,0.332 ± 0.029
12,VVVYWGSLKRVC,0.117 ± 0.027
13,VWFCCLFFCFFV,0.367 ± 0.012
14,VWSWFVIYFFFC,0.324 ± 0.014
15,VYCTFLFAYTLP,0.443 ± 0.015
16,VYEVELSVRVTV,0.447 ± 0.035
17,VYVVLGTVYVTY,0.187 ± 0.031
18,WDPKISVFVLID,0.291 ± 0.018
19,WFAHGLRHFRIL,0.299 ± 0.012
20,WFFLFGFVFFFR,0.351 ± 0.039
21,WFGCSTVWVRVQ,0.0787 ± 0.024
22,WFIPRSVCRWLF,0.0735 ± 0.026
23,WFSAGSCRWVLC,0.1431 ± 0.00041
24,WGAHRVRVSRIL,0.326 ± 0.043

row,Sequence,protein stability index
1,WLCVFVFGIFFV,0.186 ± 0.016
2,WLFRCFLFVVGG,0.366 ± 0.016
3,WLLVVCRGLVFR,0.236 ± 0.022
4,WQGWFLSLCIWV,0.296 ± 0.024
5,WQVPYQRLAILF,0.247 ± 0.02
6,WRCLHLVYLFFH,0.173 ± 0.017
7,WRVRFRLLAGFC,0.107 ± 0.027
8,WSFPFFLLPFLF,0.211 ± 0.014
9,WSFYVVGRLLVN,0.132 ± 0.0018
10,WSHVPLAPLSCF,0.315 ± 0.023
11,WSVCLLLLGRFC,0.381 ± 0.024
12,WTRAHWFFQFFV,0.0685 ± 0.0097
13,WVVVLFAYRGLR,0.379 ± 0.037
14,WYMYVRMASFLV,0.287 ± 0.027
15,YCDPSLIWLYLM,0.18 ± 0.012
16,YFICLSLVLFSY,0.179 ± 0.03
17,YIILLSRKCAFC,0.396 ± 0.024
18,YKLRAVFVCSVT,0.34 ± 0.025
19,YLYSSSPWILHG,0.287 ± 0.044
20,YTVRRVWLVRSR,0.325 ± 0.038
21,YVGILCTGILTV,0.41 ± 0.017
22,YVSSCLLWLCFV,0.287 ± 0.023
23,YYVIFHLFSFLI,0.293 ± 0.022

# Same assay, conditions: genetic background: wild type; temperature: 37 C
row,Sequence,protein stability index
1,VSLIFCLFFLSC,0.492 ± 0.027
2,VSTVCLDFSPFL,0.73714 ± 5.4e-05
3,VTSVARVVLHLL,0.165 ± 0.0027
4,VVCPCIIYVPGV,0.613 ± 0.021
5,VVFLLGPLVCGG,0.5125 ± 0.0021
6,VVFVGRSIVVLT,0.519 ± 0.019
7,VVFWFPFVLRCC,0.072 ± 0.034
8,VVFWWGHLLVSA,0.0854 ± 0.0074
9,VVLVVVWWGGVE,0.403 ± 0.036
10,VVMASSIIVVAG,0.167 ± 0.027
11,VVVLFGRLVVIC,0.5402 ± 0.003
12,VVVYWGSLKRVC,0.289 ± 0.0064
13,VWFCCLFFCFFV,0.41 ± 0.012
14,VWSWFVIYFFFC,0.444 ± 0.02
15,VYCTFLFAYTLP,0.59 ± 0.0096
16,VYEVELSVRVTV,0.51 ± 0.0073
17,VYVVLGTVYVTY,0.362 ± 0.021
18,WDPKISVFVLID,0.479 ± 0.0098
19,WFAHGLRHFRIL,0.532 ± 0.034
